From patent US20110159588A1 (published 2011) come the findings set out here.

To fix the notation:
T1: HER4 (human EGF-like receptor 4) ECD fused to hFcγ (human, UniProt Q15303 26-651)
T1 construct: extracellular domain; not shown: human Fc gamma
T1 sequence (looked up): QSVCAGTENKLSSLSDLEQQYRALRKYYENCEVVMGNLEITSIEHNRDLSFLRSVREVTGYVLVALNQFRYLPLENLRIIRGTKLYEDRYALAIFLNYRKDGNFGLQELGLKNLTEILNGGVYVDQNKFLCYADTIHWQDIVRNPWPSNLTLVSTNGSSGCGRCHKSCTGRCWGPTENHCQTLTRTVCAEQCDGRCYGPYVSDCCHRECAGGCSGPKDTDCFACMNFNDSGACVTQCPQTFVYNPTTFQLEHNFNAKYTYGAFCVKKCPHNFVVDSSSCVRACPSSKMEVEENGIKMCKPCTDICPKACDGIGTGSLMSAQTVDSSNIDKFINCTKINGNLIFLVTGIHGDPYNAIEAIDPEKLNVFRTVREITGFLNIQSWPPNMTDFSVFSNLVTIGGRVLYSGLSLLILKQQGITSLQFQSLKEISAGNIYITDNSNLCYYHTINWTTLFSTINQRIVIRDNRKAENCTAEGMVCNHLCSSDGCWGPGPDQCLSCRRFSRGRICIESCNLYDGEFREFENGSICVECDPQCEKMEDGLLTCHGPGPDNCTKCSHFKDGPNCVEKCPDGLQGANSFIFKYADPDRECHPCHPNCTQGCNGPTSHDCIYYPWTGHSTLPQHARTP

B1: TECD-FLAG (extracellular domain of TMEFF2 fused to a FLAG tag at the carboxy-terminus) (other)
chain: FPTSLSDCQTPTGWNCSGYDDRENDLFLCDTNTCKFDGECLRIGDTVTCVCQFKCNNDYVPVCGSNGESYQNECYLRQAACKQQSEILVVSEGSCATDAGSGSGDGVHEGSGETSQKETSTCDICQFGAECDEDAEDVWCVCNIDCSQTNFNPLCASDGKSYDNACQIKEASCQKQEKIEVMSLGRCQDNTTTTTKSEDGHYARTDYAENANKLEESAREHHIPCPEHYNGFCMHGKCEHSINMQEPSCRCDAGYTGQHCEKKWRADYKDDDDK
notes: Expressed in mammalian cells, purified from supernatant; also called FLAG-tagged TECD; TMEFF2-ECD
B2: recombinant human PDGF-BB (ligand, UniProt P01127 82-190, looked up)
chain: SLGSLTIAEPAMIAECKTRTEVFEISRRLIDRTNANFLVWPPCVEVQRCSGCCNNRNVQCRPTQVQLRPVQVRKIEIVRKKPIFKKATVTLEDHLACKCETVAAARPVT
notes: Bought homodimer
B3: gD-TMEFF2-ΔFS I (gD-tagged TMEFF2 lacking the N-terminal follistatin module FS I) on 293 cells (receptor)
chain: KYALADASLKMADPNRFRGKDLPVLSGRCDICQFGAECDEDAEDVWCVCNIDCSQTNFNPLCASDGKSYDNACQIKEASCQKQEKIEVMSLGRCQDNTTTTTKSEDGHYARTDYAENANKLEESAREHHIPCPEHYNGFCMHGKCEHSINMQEPSCRCDAGYTGQHCEKKDYSVLYVVPGPVRFQYVLIAAVIGTIQIAVICVVVLCITRKCPRSNRIHRQKQNTGHYSSDNTTRASTRLI
notes: Deletion mutant; The true chain lacks the region up to and including FS I
B4: recombinant human PDGF-CC (ligand, UniProt Q9NRA1 235-345, looked up)
chain: VVDLNLLTEEVRLYSCTPRNFSVSIREELKRTDTIFWPGCLLVKRCGGNCACCLHNCNECQCVPSKVTKKYHEVLQLRPKTGVRGLHKSLTDVALEHHEECDCVCRGSTGG
notes: Bought homodimer
B5: TECD-Fc (extracellular domain of TMEFF2 fused to the Fc portion of human immunoglobulin gamma at the carboxy-terminus) (Fc fusion)
chain: FPTSLSDCQTPTGWNCSGYDDRENDLFLCDTNTCKFDGECLRIGDTVTCVCQFKCNNDYVPVCGSNGESYQNECYLRQAACKQQSEILVVSEGSCATDAGSGSGDGVHEGSGETSQKETSTCDICQFGAECDEDAEDVWCVCNIDCSQTNFNPLCASDGKSYDNACQIKEASCQKQEKIEVMSLGRCQDNTTTTTKSEDGHYARTDYAENANKLEESAREHHIPCPEHYNGFCMHGKCEHSINMQEPSCRCDAGYTGQHCEKK
notes: also called TECD-hFc; Fc-tagged TECD; not shown: subc

Experiment [1] has as its target T1, HER4 (human EGF-like receptor 4) ECD …. Nature of the experiment: ELISA, TECD-FLAG coat, anti-human Fc-HRP detection. The protocol:
(§1) For the TMEFF2 coat format, MaxiSorp 96-well microwell plates (Thermo Scientific Nunc, Roskilde, Denmark) were coated with 1 μg/ml TECD-FLAG in 50 mM carbonate buffer, pH 9.6, overnight at 4° C. Plates were washed with PBS, pH 7.4 containing 0.05% polysorbate 20 and blocked with 0.5% bovine serum albumin (BSA), 15 parts per million Proclin 300 in phosphate buffered saline (PBS), pH 7.4 for 1 hour at room temperature. Serially diluted PDGF-AA, PDGF-AB or PDGF-BB in PBS containing 0.5% BSA, 0.05% polysorbate 20, and 15 parts per million Proclin 300 were added to the plates. After a 2-hour incubation, PDGF bound to the plates was detected by incubating biotinylated goat anti-human PDGF-AA or PDGF-AB or PDGF-BB in the wells for 1 hour, followed by horseradish peroxidase conjugated streptavidin (GE Healthcare, Piscataway, N.J.) for 30 min. Bound Fc-fusion protein was detected by adding goat anti-hman Fc-HRP (Jackson ImmunoResearch, West Grove, Pa.). After a final wash, the substrate 3,3′,5,5′-tetramethyl benzidine (Kirkegaard & Perry Laboratories) was added to plates and the reaction was stopped by adding 1 M phosphoric acid. Plates were washed with PBS, pH 7.4, containing 0.05% Tween 20, between steps and all incubation steps were performed at room temperature on an orbital shaker. Absorbance was read at 450 nm on a multiskan Ascent reader (Thermo Scientific, Hudson, N.H.). The titration curves were fitted using a four-parameter nonlinear regression curve-fitting program (KaleidaGraph, Synergy software, Reading, Pa.).
(§2) For testing binding of Fc-fusion proteins or his-tagged proteins to TECD-Flag coated on the plate, horseradish peroxidase conjugated goat anti-human Fc (Jackson ImmunoResearch, West Grove, Pa.) or biotinylated anti-His (Penta-His, Qiagen, Valencia, Calif.) followed by horseradish peroxidase conjugated streptavidin was used for detection. For testing TECD-Flag coat, serially diluted mouse anti-Flag (Sigma, St. Louis, Mo.) was added to the plates followed by horseradish peroxidase conjugated goat anti-mouse Fc (Jackson ImmunoResearch). Serially diluted PDGF-AA was also added to wells coated with goat anti-PDGF for comparison to wells coated with 1 μg/ml TECD-Flag. Bound PDGF-AA was detected as described above.
(In general: An ELISA detects its analyte on a solid surface through an enzyme-linked reagent.)

Experiment [2] addresses T2, HER2 (human EGF-like receptor 2) ECD fused to hFcγ (human, UniProt P04626 23-652).
T2 construct: extracellular domain; not shown: human Fc gamma
Nature of the experiment: ELISA, TECD-FLAG coat, anti-human Fc-HRP detection. The protocol:
as §1, §2

The target in experiment [3] is T3, EGFR (human epithelial growth factor receptor) ECD fused to hFcγ (human, UniProt P00533 25-645).
T3 construct: extracellular domain; not shown: human Fc gamma
Nature of the experiment: ELISA, TECD-FLAG coat, anti-human Fc-HRP detection. The protocol: as §1, §2

In experiment [4] the target is T4, HER3 (human EGF-like receptor 3) ECD fused to hFcγ (human, UniProt P21860 20-643).
T4 construct: extracellular domain; not shown: human Fc gamma
T4 sequence (P21860 20-643): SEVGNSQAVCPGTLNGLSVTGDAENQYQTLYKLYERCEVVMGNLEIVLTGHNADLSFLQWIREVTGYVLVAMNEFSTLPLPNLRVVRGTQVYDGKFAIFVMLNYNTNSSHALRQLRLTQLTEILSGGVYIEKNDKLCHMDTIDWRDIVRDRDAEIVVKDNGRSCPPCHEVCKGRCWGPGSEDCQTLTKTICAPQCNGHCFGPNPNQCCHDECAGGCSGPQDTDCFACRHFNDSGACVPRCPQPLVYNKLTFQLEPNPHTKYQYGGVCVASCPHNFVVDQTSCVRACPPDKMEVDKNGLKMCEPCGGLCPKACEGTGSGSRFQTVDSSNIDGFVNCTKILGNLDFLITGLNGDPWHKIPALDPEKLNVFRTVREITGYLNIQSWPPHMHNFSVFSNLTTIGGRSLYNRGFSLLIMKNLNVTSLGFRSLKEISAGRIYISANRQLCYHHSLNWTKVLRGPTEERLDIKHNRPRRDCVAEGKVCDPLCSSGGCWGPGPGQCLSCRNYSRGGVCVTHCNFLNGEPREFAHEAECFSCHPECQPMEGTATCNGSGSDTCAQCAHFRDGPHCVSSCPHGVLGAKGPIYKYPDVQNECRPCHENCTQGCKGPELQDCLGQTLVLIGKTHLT
The experiment in a line: ELISA, TECD-FLAG coat, anti-human Fc-HRP detection. The protocol:
as §1, §2

Experiment [5] addresses B5. The experiment in a line: ELISA, PDGF coat, anti-human Fc-HRP detection. The method, then:
For the PDGF coat format, plates were coated with 1 μg/ml PDGF-AA, PDGF-AB, PDGF-BB, PDGF-CC, or PDGF-DD. Serially diluted TECD-Fc was added to the plates. Bound TECD-Fc was detected using horseradish peroxidase conjugated goat anti-human Fc (Jackson ImmunoResearch, West Grove, Pa.).
(§3) To confirm that the binding observed is indeed due to the interaction between PDGF-AA and TMEFF2-ECD, we then immobilized the PDGF ligands on the plates, and applied the TMEFF2-ECD fused to a different tag, TECD-Fc, as an analyte.

In experiment [6] the target is T5, recombinant human soluble PDGF receptor α extracellular domain (PDGF sRα) (human, UniProt P16234 24-528, biotinylated using biotin-X-NHS in the ELISAs (sRα-bio); sites not stated).
T5 construct: extracellular domain; also called sRα-bio; soluble PDGFRα extracellular domain
T5 sequence (P16234 24-528): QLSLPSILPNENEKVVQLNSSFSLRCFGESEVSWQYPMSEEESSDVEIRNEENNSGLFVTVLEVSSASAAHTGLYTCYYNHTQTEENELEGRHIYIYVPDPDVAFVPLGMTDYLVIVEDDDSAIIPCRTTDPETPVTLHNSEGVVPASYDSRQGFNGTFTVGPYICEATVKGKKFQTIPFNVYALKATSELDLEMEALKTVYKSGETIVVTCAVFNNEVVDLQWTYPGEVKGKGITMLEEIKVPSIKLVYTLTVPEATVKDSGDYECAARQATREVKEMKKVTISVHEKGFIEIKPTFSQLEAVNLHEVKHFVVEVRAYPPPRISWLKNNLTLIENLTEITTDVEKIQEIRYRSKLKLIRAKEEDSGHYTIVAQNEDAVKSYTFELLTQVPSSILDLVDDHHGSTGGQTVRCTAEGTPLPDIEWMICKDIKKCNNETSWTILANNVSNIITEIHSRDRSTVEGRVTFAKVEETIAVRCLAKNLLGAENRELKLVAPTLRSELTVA
Nature of the experiment: ELISA, PDGF coat, sRα-bio, streptavidin-HRP detection (FIG. 9B). The method, then: FIG. 9 TECD-Fc competes with PDGF sRα for PDGF-AA binding. (A) PDGF-AA, but not AB, BB, CC or DD, binds to TECD-Fc. TECD-Fc was applied to wells coated with recombinant human PDGF-AA, AB, BB, CC or DD and detected with HRP-conjugated anti-human Fcγ. (B) sRα binds to all three recombinant human PDGF: AA, AB and BB. Biotinylated recombinant sRα (sRα-bio) was applied to wells coated with recombinant human PDGF-AA, AB, BB, CC or DD and detected with streptavidin-HRP. (C) 10 ng/ml TECD-Fc was mixed with increasing concentrations of sRα-bio and applied to PDGF-AA coated wells. Binding between sRα and PDGF-AA was detected using streptavidin-HRP.
as §3

Experiment [7] addresses T6, recombinant human PDGF-AA (human, UniProt P04085 87-211, limits assumed).
T6 construct: Bought homodimer
Nature of the experiment: co-immunoprecipitation with anti-gD mAb from transfected 293 cells, anti-PDGF-A blot. The protocol: For binding of PDGF ligands to membrane-bound TMEFF2 proteins, 293 cells were transfected with the various TMEFF2 constructs and changed to fresh growth medium containing 5 μg/ml PDGF-AA or AB 48 hours after transfection. After 1 hour of incubation unbound PDGF ligands were washed away with ice cold PBS and cells were lysed in lysis buffer containing 50 mM Tris pH 8.0, 150 mM NaCl, 1 mM EDTA, 1% NP-40, and protease and phosphatase inhibitors, pre-cleared with protein G SEPHAROSE, and immunoprecipitated with anti-TMEFF2, anti-PDGF, or anti-gD antibodies. The immune complexes were dissociated with SDS sample buffer with (reducing condition) or without (non-reducing condition) β-mercaptoethanol and resolved by 4-20% Tris-Glycine SDS PAGE, transferred to nitrocellulose membranes, and detected with the indicated antibodies using enhanced chemiluminescence.
TMEFF2 contains 2 FS modules and an EGF-like domain. To dissect which domain(s) of TMEFF2 is/are involved in its interaction with PDGF-AA, Herpes simplex type 1 glycoprotein D (gD)-epitope tagged deletion mutants of TMEFF2 were made and examined for their ability to bind PDGF-AA when expressed on the surface of 293 cells (FIG. 4). As expected, PDGF-AA co-immunoprecipitated with gD-tagged full-length TMEFF2 by an anti gD monoclonal antibody. […]

The target in experiment [8] is B1. The experiment in a line: ELISA, TECD-FLAG coat, anti-human Fc-HRP detection. The protocol:
as §1, §2

For B1, the binding result in experiment [1], in experiment [2], in experiment [3] and in experiment [4] was “no binding” in each case.

For B2, the binding result in experiment [5] is reported as “no binding”; in experiment [6], “binds”.

As for B3, the binding result in experiment [7] was “no binding (tested: 5 µg/ml)”.

For the molecule B4, the binding result in experiment [5] is “no binding”.

For B5, in experiment [8], the binding result was “no binding”.
